Laboratory results reported in doi:10.1101/2025.09.09.675085 (bioRxiv, 2025).
Where two headings read alike, the source gives them in different places.

B1: Selenomethionine-labelled tagless TipA (residues 26-572) (natural protein, Bdellovibrio bacteriovorus HD100, UniProt Q6MK73 26-572, looked up)
chain: ITDANPQIANKHLMPNAVRVQITQRGMKYFDNRLSDILGNLGVKLDEGYFPAMSYTAEKPINMDDFMDANPEMVKMYQQVRGLLTQWLVGFSMNDHQPTIEIGESGYVAKFSRFGLVTDELLMEALGKRDGAILAIELEVKKLTISTQSVVAWDTQNEFLGKAGFEDVTLQAADEEMPLKIRLPFYLRMNAMGGLEFEALEISNNFDSIPLGLKYGRLIVPQFAVEVNGKKFYVNNAELEKLFQAQAPMILEKVRGSIGDFARTQLPAMLNQKAKEFLGGSLEQVQDMAAPGQEPTDTRPAFKWGLQLQNLNLKKSLNVDLTTYVEDPVNSRSAPVKSHASRGAPTFNAVAQENYDIGLSVDRALINRVLQLAFERRNFEQIKQSDGSVLKLVATPLIDYVKTPAGVAVKPTETFVKLRVSVEIQPGSMFLKKTIVVDFDIIAKLRQLSDKTGMQMLLHSIDTDSLYLDDKYISVAGKLFKGKVREGVKDELKKRSANWATTEESLPGGLPLPPQILGIKLDINRVMMDPNGHLIMYLDYAKTGANK
modifications: selenomethionine-labelled
B2: TipA-His (TULIP invasion protein A, Bd2538, residues 26-572 with C-terminal octa-His tag) (natural protein, Bdellovibrio bacteriovorus HD100, UniProt Q6MK73 26-572, looked up)
chain: ITDANPQIANKHLMPNAVRVQITQRGMKYFDNRLSDILGNLGVKLDEGYFPAMSYTAEKPINMDDFMDANPEMVKMYQQVRGLLTQWLVGFSMNDHQPTIEIGESGYVAKFSRFGLVTDELLMEALGKRDGAILAIELEVKKLTISTQSVVAWDTQNEFLGKAGFEDVTLQAADEEMPLKIRLPFYLRMNAMGGLEFEALEISNNFDSIPLGLKYGRLIVPQFAVEVNGKKFYVNNAELEKLFQAQAPMILEKVRGSIGDFARTQLPAMLNQKAKEFLGGSLEQVQDMAAPGQEPTDTRPAFKWGLQLQNLNLKKSLNVDLTTYVEDPVNSRSAPVKSHASRGAPTFNAVAQENYDIGLSVDRALINRVLQLAFERRNFEQIKQSDGSVLKLVATPLIDYVKTPAGVAVKPTETFVKLRVSVEIQPGSMFLKKTIVVDFDIIAKLRQLSDKTGMQMLLHSIDTDSLYLDDKYISVAGKLFKGKVREGVKDELKKRSANWATTEESLPGGLPLPPQILGIKLDINRVMMDPNGHLIMYLDYAKTGANK

Assays:
crystal structure [1] = target: the molecule itself; experiment: crystal structure
crystal structure [2] = target: the molecule itself; experiment: crystal structure; remark: listed apart in the source

Protein | stoichiometry N (crystal structure [1]) | stoichiometry N (crystal structure [2])
B1 | 2 | 
B2 |  | 2
